From paper PMC10450195 come the findings set out here.

The subject of data set [1] is LANA peptide (Kaposi's Sarcoma Herpesvirus). Kind of data set: fluorescence polarization. The conditions noted are these: FP: 20 mM HEPES pH 7.5, 150 mM NaCl, 0.5 mM EDTA, 1 mM DTT, 0.05% Triton X-100, 20 C, 50 nM peptide, EMSA: 15 mM HEPES pH 7.5, 150 mM NaCl. In general terms: Polarisation of emitted light reports the rotation of a fluorescent probe.
Data set [2] addresses Homo sapiens nucleosome core particle (human) (UniProt P68431). The data set can be described thus: fluorescence polarisation.

In data set [1], H. sapiens NCP returned a Kd of 2380 nM. In data set [2], “Kaposi's Sarcoma Herpesvirus Latency Associated Nuclear Antigen (LANA) peptide, aa. 4-23” registered a Kd of 2380 nM.

Usually Kd stands for the constant that tells how readily two partners part at equilibrium. A lower Kd goes with higher affinity.
